Data set [1] deals with the molecule itself. Briefly: crystal structure; sitting drop vapour diffusion, FICD at 9 mg/ml in 10 mM Tris-HCl pH 8.0, 150 mM NaCl, 1 mM TCEP, ± 10 mM MgATP.
Data set [2] deals with the molecule itself. Briefly: SEC; analytical SEC, SEC-3 HPLC column, HKMC buffer (50 mM HEPES-KOH pH 7.4, 150 mM KCl, 10 mM MgCl2, 1 mM CaCl2), 25 °C; FICD at 20 µM, or 0.2-50 µM after 16 h at 25 °C (Figure S1D-E); approximate Kd of dimer to monomers from elution peak times. Background: In gel filtration, larger molecules generally elute earlier.
The target of data set [3] is T1, biotinylated AviTag-haBiP^V461F(19-654), AMPylated (Chinese hamster, UniProt G3I8R9 19-654, V461F, AMP on Thr518 (AMPylation); biotin on the AviTag).
T1 construct: Chinese hamster BiP (haBiP), aa 19-654; also called BiP-AMP; AMPylated BiP; not shown: GST, N-terminal, cleaved; AviTag, N-terminal, kept
T1 sequence (G3I8R9 19-654 V461F): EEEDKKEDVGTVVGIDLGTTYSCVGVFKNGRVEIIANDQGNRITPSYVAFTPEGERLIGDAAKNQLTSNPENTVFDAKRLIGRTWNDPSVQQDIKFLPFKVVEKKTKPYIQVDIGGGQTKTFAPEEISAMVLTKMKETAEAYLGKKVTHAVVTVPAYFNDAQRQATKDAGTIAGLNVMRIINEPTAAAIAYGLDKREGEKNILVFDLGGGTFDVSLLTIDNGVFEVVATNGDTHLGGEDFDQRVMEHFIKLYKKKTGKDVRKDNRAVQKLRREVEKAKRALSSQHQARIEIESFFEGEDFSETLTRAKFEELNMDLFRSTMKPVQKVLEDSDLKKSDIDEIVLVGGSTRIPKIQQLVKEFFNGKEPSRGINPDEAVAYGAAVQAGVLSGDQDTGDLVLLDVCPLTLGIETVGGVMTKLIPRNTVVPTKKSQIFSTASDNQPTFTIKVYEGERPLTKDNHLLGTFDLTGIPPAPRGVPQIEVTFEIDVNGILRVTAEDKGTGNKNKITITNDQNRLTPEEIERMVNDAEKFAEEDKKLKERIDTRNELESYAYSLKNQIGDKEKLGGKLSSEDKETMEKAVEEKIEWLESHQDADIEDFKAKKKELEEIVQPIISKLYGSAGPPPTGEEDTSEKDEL
Briefly: BLI; biotinylated AMPylated or unmodified BiP immobilised on streptavidin biosensors; FICD His363Ala variants in solution at 250 nM; HKM plus 0.05% Triton X-100, 30 °C (Figure S2G). Conditions: both partners purified. (In BLI a coated tip is dipped into the sample, and binding shifts an interference pattern.)

For data set [4], the target named is T2, biotinylated AviTag-haBiP(28-635)^T229A-V461F (Chinese hamster, UniProt G3I8R9 28-635, T229A | V461F, biotin on the AviTag).
T2 construct: Chinese hamster BiP (haBiP), aa 28-635; the assay tells the nucleotide state; also called BiP^T229A-V461F:Apo; BiP:ATP; not shown: GST, N-terminal, cleaved; AviTag, N-terminal, kept
T2 sequence (G3I8R9 28-635 T229A/V461F): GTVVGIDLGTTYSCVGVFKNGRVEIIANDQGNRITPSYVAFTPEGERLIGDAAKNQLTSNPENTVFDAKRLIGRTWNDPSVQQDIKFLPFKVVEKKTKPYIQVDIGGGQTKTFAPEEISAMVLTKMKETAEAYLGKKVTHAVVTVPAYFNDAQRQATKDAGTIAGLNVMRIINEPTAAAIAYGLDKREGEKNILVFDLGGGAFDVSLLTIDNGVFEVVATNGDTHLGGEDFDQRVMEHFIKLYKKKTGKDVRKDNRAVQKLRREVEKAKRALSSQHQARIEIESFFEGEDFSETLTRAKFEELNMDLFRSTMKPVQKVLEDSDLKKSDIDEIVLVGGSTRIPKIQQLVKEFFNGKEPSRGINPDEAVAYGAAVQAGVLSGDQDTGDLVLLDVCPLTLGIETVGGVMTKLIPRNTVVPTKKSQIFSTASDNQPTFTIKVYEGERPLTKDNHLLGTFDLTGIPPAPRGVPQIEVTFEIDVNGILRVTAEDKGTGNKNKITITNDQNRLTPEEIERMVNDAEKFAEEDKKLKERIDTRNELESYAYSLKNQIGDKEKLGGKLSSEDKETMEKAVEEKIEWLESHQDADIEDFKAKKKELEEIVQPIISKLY
Briefly: BLI; biotinylated BiP^T229A-V461F(28-635) immobilised on streptavidin biosensors and pre-saturated with ATP (2 mM); FICD His363Ala variants at 250 nM, without or with nucleotide (ATP 8 mM, ADP 2 mM); HKM plus 0.05% Triton X-100, 30 °C. The note with it: both partners purified.

Data set [5] concerns the molecule itself. Briefly: AUC; fluorescence-detected sedimentation velocity, Oregon Green-labelled FICD 1.6 µM to 31 pM, 20 °C, 50 mM HEPES-KOH pH 7.4, 150 mM KCl, 10 mM MgCl2, 1 mM CaCl2, 0.3 mM TCEP, 0.1% Tween-20, 0.15 mg/ml BSA; monomer-dimer fit (dimer to monomers).

B1: FICD^K256A (aa 104-445) (domain or fragment, human, UniProt Q9BVA6 104-445, looked up)
chain: LEARAALNQALEMKRQGKREKAQKLFMHALKMDPDFVDALTEFGIFSEEDKDIIQADYLYTRALTISPYHEKALVNRDRTLPLVEEIDQRYFSIIDSKVKKVMSIPKGNSALRRVMEETYYHHIYHTVAIEGNTLTLSEIRHILETRYAVPGASLEEQNEVIGMHAAMKYINTTLVSRIGSVTISDVLEIHRRVLGYVDPVEAGRFRTTQVLVGHHIPPHPQDVEKQMQEFVQWLNSEEAMNLHPVEFAALAHYKLVYIHPFIDGNGRTSRLLMNLILMQAGYPPITIRKEQRSDYYHVLEAANEGDVRPFIRFIAKCTETTLDTLLFATTEYSVALPEAQP
notes: human FICD (HYPE), aa 104-445; also called dimeric dimer relay mutant FICD^K256A; source: E. coli T7 Express lysY/I^q, purified (Ni-NTA, on-column Ulp1 cleavage, anion exchange, SEC); not shown: His6, N-terminal, cleaved; Smt3, N-terminal, cleaved
Consider B1, for which the binding result in data set [1] is “binds”.

B2: FICD^E242A (aa 104-445) (domain or fragment, human, UniProt Q9BVA6 104-445, looked up)
chain: LEARAALNQALEMKRQGKREKAQKLFMHALKMDPDFVDALTEFGIFSEEDKDIIQADYLYTRALTISPYHEKALVNRDRTLPLVEEIDQRYFSIIDSKVKKVMSIPKGNSALRRVMEETYYHHIYHTVAIEGNTLTLSAIRHILETRYAVPGKSLEEQNEVIGMHAAMKYINTTLVSRIGSVTISDVLEIHRRVLGYVDPVEAGRFRTTQVLVGHHIPPHPQDVEKQMQEFVQWLNSEEAMNLHPVEFAALAHYKLVYIHPFIDGNGRTSRLLMNLILMQAGYPPITIRKEQRSDYYHVLEAANEGDVRPFIRFIAKCTETTLDTLLFATTEYSVALPEAQP
notes: human FICD (HYPE), aa 104-445; also called dimer relay mutant; source: E. coli T7 Express lysY/I^q, purified (Ni-NTA, on-column Ulp1 cleavage, anion exchange, SEC); not shown: His6, N-terminal, cleaved; Smt3, N-terminal, cleaved
Take B2: in data set [2], the Kd is below 400 nM.

B3: FICD^C421S (aa 104-445) (domain or fragment, human, UniProt Q9BVA6 104-445, looked up)
chain: LEARAALNQALEMKRQGKREKAQKLFMHALKMDPDFVDALTEFGIFSEEDKDIIQADYLYTRALTISPYHEKALVNRDRTLPLVEEIDQRYFSIIDSKVKKVMSIPKGNSALRRVMEETYYHHIYHTVAIEGNTLTLSEIRHILETRYAVPGKSLEEQNEVIGMHAAMKYINTTLVSRIGSVTISDVLEIHRRVLGYVDPVEAGRFRTTQVLVGHHIPPHPQDVEKQMQEFVQWLNSEEAMNLHPVEFAALAHYKLVYIHPFIDGNGRTSRLLMNLILMQAGYPPITIRKEQRSDYYHVLEAANEGDVRPFIRFIAKSTETTLDTLLFATTEYSVALPEAQP
notes: human FICD (HYPE), aa 104-445; also called cysteine-free FICD^C421S; UK 2161; source: E. coli, purified by the protocol of the disulphide-linked dimers (Ni-NTA, oxidised glutathione, anion exchange, SEC); not shown: His6, N-terminal, cleaved; Smt3, N-terminal, cleaved
As to B3, in data set [2], the binding result is “binds”.

B4: FICD^L258D-H363A (aa 104-445) (domain or fragment, human, UniProt Q9BVA6 104-445, looked up)
chain: LEARAALNQALEMKRQGKREKAQKLFMHALKMDPDFVDALTEFGIFSEEDKDIIQADYLYTRALTISPYHEKALVNRDRTLPLVEEIDQRYFSIIDSKVKKVMSIPKGNSALRRVMEETYYHHIYHTVAIEGNTLTLSEIRHILETRYAVPGKSDEEQNEVIGMHAAMKYINTTLVSRIGSVTISDVLEIHRRVLGYVDPVEAGRFRTTQVLVGHHIPPHPQDVEKQMQEFVQWLNSEEAMNLHPVEFAALAHYKLVYIAPFIDGNGRTSRLLMNLILMQAGYPPITIRKEQRSDYYHVLEAANEGDVRPFIRFIAKCTETTLDTLLFATTEYSVALPEAQP
notes: human FICD (HYPE), aa 104-445; also called mFICD^H363A; source: E. coli T7 Express lysY/I^q, purified (Ni-NTA, on-column Ulp1 cleavage, anion exchange, SEC); not shown: His6, N-terminal, cleaved; Smt3, N-terminal, cleaved
For B4, the binding result in data set [3] and in data set [4] was “binds” each time.

B5: Oregon Green-labelled FICD^NC (domain or fragment, human)
chain: CLEARAALNQALEMKRQGKREKAQKLFMHALKMDPDFVDALTEFGIFSEEDKDIIQADYLYTRALTISPYHEKALVNRDRTLPLVEEIDQRYFSIIDSKVKKVMSIPKGNSALRRVMEETYYHHIYHTVAIEGNTLTLSEIRHILETRYAVPGKSLEEQNEVIGMHAAMKYINTTLVSRIGSVTISDVLEIHRRVLGYVDPVEAGRFRTTQVLVGHHIPPHPQDVEKQMQEFVQWLNSEEAMNLHPVEFAALAHYKLVYIHPFIDGNGRTSRLLMNLILMQAGYPPITIRKEQRSDYYHVLEAANEGDVRPFIRFIAKCTETTLDTLLFATTEYSVALPEAQP
modifications: Oregon Green 488 on the added N-terminal cysteine (labelling efficiency 74%)
notes: N-terminal cysteine added for site-specific labelling, told in words only; human FICD (HYPE), aa 104-445 (purified 'as described above'); also called UK 2339; wild-type (red); source: E. coli, purified (Ni-NTA, anion exchange, SEC), labelled with Oregon Green 488-iodoacetamide; not shown: His6, N-terminal, cleaved; Smt3, N-terminal, cleaved
Turning to B5, the dissociation constant Kd in data set [5] was determined as 1.2 nM.

Usually Kd stands for the free concentration of one partner at which half of the binding sites on the other are occupied at equilibrium, for simple one-to-one binding.

(Values after article doi:10.1101/595835, “An oligomeric state-dependent switch in FICD regulates AMPylation and deAMPylation of the chaperone BiP” (bioRxiv, 2019).)
